From patent US5861501

System: influenza endonuclease (purified viral ribonucleoprotein, low-pH treated; polymerase-associated cap-dependent endonuclease) (Influenza virus)
Experiment: competition
Settings: 5'-triphosphate; 2'-OMe on G1; 3'-terminal 3'-dA; filter retention competition; binding is cap dependent; scale: % of labeled capped 10-mer binding competed at up to 150 nM

Q: How did the binding signal turn out when “GUAUUAAUAA [5'-triphosphorylated 10-mer (uncapped)]” was run?
A: 10
